For this data set, the target named is Cys109 (UniProt position 128, ADAGFCYPPET). The experiment in a line: NMR. The note with it: 25 °C (general NMR condition 'unless stated otherwise'; not stated specifically for the pH series); reduced nDsbD (C103 and C109 as thiols), isolated domain, folded, cap loop closed.

The source of these data is paper PMC7347389.

Turning to “Thiol:disulfide interchange protein DsbD, N-terminal domain (nDsbD) (Escherichia coli)”, the pKa result is reported as “above 11”.
